The results in this text go back to the supplement of paper PMC9170038.

Series [1] deals with MS2 coat protein. Briefly: apparent KD of MS2 coat protein, switch ON state; designed switch direction (-1 OFF switch, 1 ON switch): 1; higher = weaker reporter binding. The conditions noted are these: FMN input: 0 or 200 uM; Eterna round: R93 (includes R88 designs). The method, boiled down:
(§1)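 The buffer was 100 mM Tris-HCl pH 7.5 with 80 mM KCl and 4 mM MgCl2, used without or with constant ligand. In it, RNA switches transcribed on-chip from Illumina sequencing clusters were titrated with SNAP-549-labelled MS2 coat protein in twofold steps from 0.7 or 1.5 nM to 3 µM. Apparent KD for each design is the median of its normalised cluster binding-curve fits.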

Series [2] relates to MS2 coat protein. Description: apparent KD of MS2 coat protein, switch OFF state (with FMN for OFF switches, without FMN for ON switches); designed switch direction (-1 OFF switch, 1 ON switch): 1; higher = weaker reporter binding. The settings on record: FMN input: 0 or 200 uM; Eterna round: R93 (includes R88 designs). The method, boiled down: as §1

On to “GUAGACAUAGUUCAGGAUAUAUGAAUAGUCACAUGAGGAUCACCCAUGUGCAUUUAUAUGCGCACAUAGAAGGGAGGUAGUUAAC [Mat - Same state - Malcolm Mod - D122]”, for which the “apparent KD of MS2 coat protein” value in series [1] came to 22.3 nM; in series [2] it was 20.7 nM.
For “AGAGAUAACAGAGAGGAUAUCCAAUAGAAAACAUGAGGAUCACCCAUGUGAAAGAUAAUAAAAUGGGAGAAGGCUCACAAUAAGA [Topaz 42]”, in that order: 15.8 nM and 39.8 nM.
“AACAAUCUAUCUGAGGAUAUGUGUCAAAAGACAUGAGGAUCACCCAUGUAAAAACAUGGGAAAACACAGAAGGCAGAUAGAUUGA [SS2: 1151]”: the “apparent KD of MS2 coat protein” value is 369 nM in series [1] and 184 nM in series [2].
On the same counts, the results for “AAGACACAUGAGGAUCACCCAUGUCAAGAGAGAUGAGGAUAUCUGAGUUAGUUAAGUUAAGGAGAAGGCAUGAAAA [LROPPY Same State 1 - v01_deltaG=3.81]” are 31 nM and 59.4 nM.
Regarding “UUUAAUUAUACGAAGGAUAUCGAUAAUAAGACAUGAGGAUCACCCAUGUAAUAUUUUUCCAUAUUCGAGAAGGUCGCGGGUGAAC [JR_SS002_Sub601]”, the “apparent KD of MS2 coat protein” value was found to be 25 nM in series [1] and 16.9 nM in series [2].
With “GAAAAACAUGAGGAUCACCCAUGUGUAAACACGGGAGGAUAUACAAAGACGUAAGUCAAAGUAGAAGGCCUAAAAG [Garnet 39]”, the “apparent KD of MS2 coat protein” value in series [1] is 26.7 nM; in series [2] it was 96.5 nM.
In the case of “AACUACAUUAUGAAGGAUAUCCGCGUCUAGACAUGAGGAUCACCCAUGUAUACUUGGAUCAUGCAGGAGAAGGUCAAGGGUGAUU [JR_SS002_Sub1209]”, the “apparent KD of MS2 coat protein” value in series [1] is 178 nM; in series [2] it was 122 nM.
For “AGAAUAAAAAGACAGGAUAUCCAAAAUAAAACAUGAGGAUCACCCAUGUAAAAAAAAUAAAAAUGGGAGAAGGGUCAAAAUAAGA [Mat - Same State 2 - JL mod - D63]”, in that order: 18.8 nM and 31.9 nM.
Consider “AAAAAACAUGAGGAUCACCCAUGUCUUCGGACAUGAGGAUAUGUACAGACUUCGGUCUGUACAGAAGGCAUGUAAA [SS1 - 1017]”, for which the figures for the “apparent KD of MS2 coat protein” value in series [1] and in series [2] were 323 nM and 61.2 nM, respectively.
For “ACAAAGCUACACUAGGAUAUGGGUGUCUAAACAUGAGGAUCACCCAUGUGAUGGCAAAACAAAGCUCAGAAGGAGUCGUAGCCCA [Bientevece]”, in that order: 15 nM and 34.9 nM.
With “AAAAACACGGUGCAGGAUAUAUUAAUAGUCACAUGAGGAUCACCCAUGUUCAUUUAUAUGAACGAGUAGAAGGGCGGUGAAAAAA [Mat - Same state - Malcolm Mod - D112]”, the “apparent KD of MS2 coat protein” value in series [1] is 172 nM; in series [2], 148 nM.
Take “GGUCGACAUGAGGAUCACCCAUGUAAGCCAAGGCAAGGAUAUGGGUAUAGGGUGCUAGGAUUAGAAGGUGCCAAAA [Soredige]”: the results for the “apparent KD of MS2 coat protein” value in series [1] and in series [2] were 87.1 nM and 82.8 nM, respectively.
For “AAUAUAUUAAGUGAGGAUAUCGAAGAAAAAACAUGAGGAUCACCCAUGUGGGAAACCUGGUCGGGUGAGAAGGCACUUAAUAUAU [Samwise Clockwise 27 - Jieux - Same State 2]”, the figures for the “apparent KD of MS2 coat protein” value in series [1] and in series [2] were 45.5 nM and 85.4 nM, respectively.
On the same counts, the results for “GUUGAACAUGAGGAUCACCCAUGUCUCAACAGUCAAGGAUAUGGGUCAUGCAGAUGAAUACCAGAAGGUGAAUAAA [Zaorxe]” are 15.8 nM and 33.6 nM.
For “AACAAUCUAUCUGAGGAUAUGUGUCGAAAGACAUGAGGAUCACCCAUGUCAAAACAUGGGAAGAUACAGAAGGCAGAUAGAUUGA [SS2: 1159]”, the “apparent KD of MS2 coat protein” value in series [1] stood at 79.9 nM; in series [2], 417 nM.
With “AAAAAACAUGAGGAUCACCCAUGUAAAAAAAACACAGGAUAUCCCUUUUUUAAAUAAAAAGGAGAAGGGUGAAAAA [Nob's Hobby 8 - Jieux - Same State 1]”, the “apparent KD of MS2 coat protein” value in series [1] came out at 24.1 nM; in series [2], 30.9 nM.
On the same counts, the results for “AGGAAACAUGAGGAUCACCCAUGUAAAGAAGGGUGAGGAUAUACAAAGAAAAGAAAGAAAGUAGAAGGCACAAAAG [Mongoose]” are 233 nM and 113 nM.
On the same counts, the results for “AUGAGGAAGAGAGAGGAUAUCCAAAGGAAAACAUGAGGAUCACCCAUGUAAAAGGUAGGAAAUUGGGAGAAGGCUCAAGAGAGAG [salish99-ss2-065]” are 23.4 nM and 44.7 nM.
With “GAAAAACAUGAGGAUCACCCAUGUAAGAUAAACACAGGAUAUGCGAAAAGAAACAAAGAAGCAGAAGGGUGAAGAA [Mat - Same State 1 - Tesla mod - 46]”, the “apparent KD of MS2 coat protein” value in series [1] was found to be 18 nM; in series [2] it was 30.2 nM.
As for “AUAAAACAUGAGGAUCACCCAUGUAGAAAUAUGGGAGGAUAUACAAAGACGAAAGUCAAGGUAGAAGGCCUAAAAG [Mat - Same State 1 - Meechl mod - D118]”, the figures for the “apparent KD of MS2 coat protein” value in series [1] and in series [2] were 39.1 nM and 47.4 nM, respectively.
On the same counts, the results for “CGAAGACAUGAGGAUCACCCAUGUGGGAAUAUGGGAGGAUAUACAAAGACGAGAGUCAGAGUAGAAGGCCUAGGAG [salish99-ss1-106]” are 40.2 nM and 59.3 nM.
In the case of “GGGAGACAUGAGGAUCACCCAUGUGAAAACGUGUGAGGAUAUCUAUGGAAACCAUACUGUAGAGAAGGCACUUGUC [Servius Sulpicius Similis]”, the “apparent KD of MS2 coat protein” value worked out at 45.4 nM in series [1] and 125 nM in series [2].
With “AAAGACAUGGUGCAGGAUAUAUUAAUAGUCACAUGAGGAUCACCCAUGUUCAUUUAUAUGAACGAGUAGAAGGGCGAUGAAAAAA [SameState2 Malc#7]”, the “apparent KD of MS2 coat protein” value in series [1] came out at 38.4 nM; in series [2], 38.8 nM.
Consider “GAAAAACAUGAGGAUCACCCAUGUAGAAAUAUGGGAGGAUAUACAAAGACGUAAGUCAAAGUAGAAGGCCUAAAAG [Mat - Same State 1 - Eli mod - D8]”, for which the figures for the “apparent KD of MS2 coat protein” value in series [1] and in series [2] were 19.1 nM and 76.9 nM, respectively.
On the same counts, the results for “AAAAAACAUGAGGAUCACCCAUGUCCUCGGACAUGAGGAUAUGUACAGACUUCGGUCUGUACAGAAGGCAUGAAAA [SS1 - 1014]” are 713 nM and 756 nM.
Take “AAAAAACAUGAGGAUCACCCAUGUAAAAAAAACACAGGAUAUCCCUUUUUUAAAUGGGAGGGAGAAGGGUGAAAAA [Nob's Hobby 12 - Jieux - Same State 1]”: the “apparent KD of MS2 coat protein” value was 17.4 nM in series [1] and 29.3 nM in series [2].
For “AAAAGACAUGAGGAUCACCCAUGUAAAAACAUGGGAGGAUAUGCAUGGAAAACAUGCUGUGCAGAAGGCUCAUGUC [SS1 - 18]”, in that order: 40 nM and 25.5 nM.
On the same counts, the results for “CAGAAGGAGAGAGAGGAUAUCCAAAGGAAAACAUGAGGAUCACCCAUGUAAAAGGUAGGAAAUUGGGAGAAGGCUCAAGAGAGAG [salish99-ss2-110]” are 33.2 nM and 33.3 nM.
For “GAAAAACAUGAGGAUCACCCAUGUAGAAAUAUGGGAGGAUAUACAAUGACGAAAGUCAAUGUAGAAGGCCUGAUAG [JL S1 M-MoE mod 4]”, in that order: 25.7 nM and 74.2 nM.
In the case of “GUCAGGAAGAGAGAGGAUAUCCAAAGGAAAACAUGAGGAUCACCCAUGUAAAAGGUAGGAAAUUGGGAGAAGGCUCAAGAGAGAG [salish99-ss2-095]”, the entries for the “apparent KD of MS2 coat protein” value in series [1] and in series [2] were 31.5 nM and 48.8 nM, respectively.
For “AAUAAACAUGAGGAUCACCCAUGUCUUUUACAUCAAGGAUAUGGGAUCGGAAAUCCGACACCAGAAGGUGAGUAGA [Userra]”, in that order: 157 nM and 300 nM.
Consider “GAGGACAUAGUAUAGGAUAUAUGAAUAAUUACAUGAGGAUCACCCAUGUGCAUUUAUAUGCGAACAUAGAAGGGUGGUAGUUAUC [SameState2 Malc#32]”, for which the “apparent KD of MS2 coat protein” value in series [1] amounted to 41.6 nM; in series [2], 37 nM.
For “AAAGAAGAAAGCGAGGAUAUGGAUGGGUAAACAUGAGGAUCACCCAUGUAUAAGAAAGAAAGAAACCAGAAGGCGCAAAAGAAAA [Khenemmaatre Hakor]”, in that order: 70 nM and 93.7 nM.
As for “AAAUAAAUAAGAGAGGAUAUGUCAGAGAAAACAUGAGGAUCACCCAUGUGAUAAUAAAAAGGGUGACAGAAGGCUCAAAACAAAC [Topaz 52]”, the “apparent KD of MS2 coat protein” value in series [1] is 19.9 nM; in series [2] it was 59.3 nM.
For “AAAAAACAUGAGGAUCACCCAUGUGAAAAUAUGGAAGGAUAUACCGAAAAAAAAAAAAAGGUAGAAGGUCUAAAAA [SS! 1 MT 4]”, the entries for the “apparent KD of MS2 coat protein” value in series [1] and in series [2] were 23 nM and 32.3 nM, respectively.
For “GAAAAACAUGAGGAUCACCCAUGUUAAUAUAUGGGAGGAUAUACAAAGACGAAAGUCAAAGUAGAAGGCCUAAAAG”, in that order: 19.7 nM and 43.3 nM.
On the same counts, the results for “GAAAAACAUGAGGAUCACCCAUGUAAAAAAAUGGGAGGAUAUACAAAGACGAAAGUCAAAGUAGAAGGCCUGAAAG [same state 2]” are 18 nM and 81.8 nM.
On the same counts, the results for “AGGAAGGAGAGAGAGGAUAUCCAAAGGAAAACAUGAGGAUCACCCAUGUAGAAGGUAGGAAAUUGGGAGAAGGCUCAAGAGACAG [salish99-ss2-126]” are 16.8 nM and 49.5 nM.
